The text below walks through data of the supplement of paper PMC11246515.

± gives the standard deviation of the averaged measurements.

This data set is described as follows: total protein half-life in vivo (active degradation + dilution); higher = more stable protein.
[1] abbreviates: E. coli NCM3722 delta-clpP delta-lon delta-hslV, growth: N-lim chemostat, doubling time 6 h.
[2] abbreviates: E. coli NCM3722 delta-clpP, growth: N-lim chemostat, doubling time 6 h.
Setting [3] is: E. coli NCM3722 delta-smpB, growth: N-lim chemostat, doubling time 6 h.
Setting [4] is: wild type E. coli NCM3722, growth: C-lim chemostat, doubling time 6 h.
Setting [5] is: wild type E. coli NCM3722, growth: N-lim chemostat, doubling time 6 h.
Setting [6] is: wild type E. coli NCM3722, growth: P-lim chemostat, doubling time 6 h.
Setting [7] is: wild type E. coli NCM3722, growth: P-lim chemostat, doubling time 12 h.
[8] abbreviates: E. coli NCM3722 delta-hslV, growth: N-lim chemostat, doubling time 6 h.
The mark [9] stands for this setting: E. coli NCM3722 delta-lon, growth: N-lim chemostat, doubling time 6 h.
Where [10] appears, read: wild type E. coli NCM3722, growth: C-lim chemostat, doubling time 3 h.
Where [11] appears, read: wild type E. coli NCM3722, growth: C-lim chemostat, doubling time 12 h.
Where [12] appears, read: wild type E. coli NCM3722, growth: N-lim chemostat, doubling time 12 h.

For “MNINVAELLNGNYILLLFVVLALGLCLGKLRLGSIQLGNSIGVLVVSLLLGQQHFSINTDALNLGFMLFIFCVGVEAGPNFFSIFFRDGKNYLMLALVMVGSALVIALGLGKLFGWDIGLTAGMLAGSMTSTPVLVGAGDTLRHSGMESRQLSLALDNLSLGYALTYLIGLVSLIVGARYLPKLQHQDLQTSAQQIARERGLDTDANRKVYLPVIRAYRVGPELVAWTDGKNLRELGIYRQTGCYIERIRRNGILANPDGDAVLQMGDEIALVGYPDAHARLDPSFRNGKEVFDRDLLDMRIVTEEVVVKNHNAVGKRLAQLKLTDHGCFLNRVIRSQIEMPIDDNVVLNKGDVLQVSGDARRVKTIADRIGFISIHSQVTDLLAFCAFFVIGLMIGMITFQFSTFSFGMGNAAGLLFAGIMLGFMRANHPTFGYIPQGALSMVKEFGLMVFMAGVGLSAGSGINNGLGAIGGQMLIAGLIVSLVPVVICFLFGAYVLRMNRALLFGAMMGARTCAPAMEIISDTARSNIPALGYAGTYAIANVLLTLAGTIIVMVWPGLG”, the “total protein half-life in vivo” value worked out at 6.56 ± 0.66 h under setting [1]; 6.38 ± 1 h under setting [2]; 6.19 ± 0.91 h under setting [3]; 7.06 ± 0.39 h under setting [4]; 6.17 ± 0.47 h under setting [5]; 7.316 ± 0.023 h under setting [6]. Besides, the “total protein half-life in vivo” value under setting [7] is 12 ± 2.5 h.

Take “MQAEILLTLKLQQKLFADPRRISLLKHIALSGSISQGAKDAGISYKSAWDAINEMNQLSEHILVERATGGKGGGGAVLTRYGQRLIQLYDLLAQIQQKAFDVLSDDDALPLNSLLAAISRFSLQTSARNQWFGTITARDHDDVQQHVDVLLADGKTRLKVAITAQSGARLGLDEGKEVLILLKAPWVGITQDEAVAQNADNQLPGIISHIERGAEQCEVLMALPDGQTLCATVPVNEATSLQQGQNVTAYFNADSVIIATLC [P0A9G8]”: the “total protein half-life in vivo” value worked out at 5.338 ± 0.023 h under setting [1]; 5.85 ± 0.37 h under setting [2]; 6.82 ± 1.4 h under setting [8]; 6.41 ± 0.61 h under setting [9]; 5.84 ± 0.2 h under setting [3]; 3.04 ± 0.29 h under setting [10]. Further, the “total protein half-life in vivo” value is 6.38 ± 0.15 h under setting [4]; 12.7 ± 0.41 h under setting [11]; 5.703 ± 0.02 h under setting [5]; 11.88 ± 0.075 h under setting [12]; 6.2 ± 0.59 h under setting [6]; 12.13 ± 0.038 h under setting [7].

Regarding “MTTNYIFVTGGVVSSLGKGIAAASLAAILEARGLNVTIMKLDPYINVDPGTMSPIQHGEVFVTEDGAETDLDLGHYERFIRTKMSRRNNFTTGRIYSDVLRKERRGDYLGATVQVIPHITNAIKERVLEGGEGHDVVLVEIGGTVGDIESLPFLEAIRQMAVEIGREHTLFMHLTLVPYMAASGEVKTKPTQHSVKELLSIGIQPDILICRSDRAVPANERAKIALFCNVPEKAVISLKDVDSIYKIPGLLKSQGLDDYICKRFSLNCPEANLSEWEQVIFEEANPVSEVTIGMVGKYIELPDAYKSVIEALKHGGLKNRVSVNIKLIDSQDVETRGVEILKGLDAILVPGGFGYRGVEGMITTARFARENNIPYLGICLGMQVALIDYARHVANMENANSTEFVPDCKYPVVALITEWRDENGNVEVRSEKSDLGGTMRLGAQQCQLVDDSLVRQLYNAPTIVERHRHRYEVNNMLLKQIEDAGLRVAGRSGDDQLVEIIEVPNHPWFVACQFHPEFTSTPRDGHPLFAGFVKAASEFQKRQAK [P0A7E5]”, the “total protein half-life in vivo” value reads like this: under setting [1], 6.37 ± 0.47 h; under setting [2], 5.64 ± 0.39 h; under setting [8], 5.16 ± 0.13 h; under setting [9], 5.75 ± 0.15 h; under setting [3], 5.11 ± 0.71 h; under setting [10], 3.06 ± 0.25 h. For the same sequence, the “total protein half-life in vivo” value came to 6.11 ± 0.39 h under setting [4]; 12.3 ± 1.2 h under setting [11]; 5.2 ± 0.22 h under setting [5]; 9.4 ± 0.35 h under setting [12]; 6.161 ± 0.058 h under setting [6]; 13.1 ± 0.8 h under setting [7].

On to “MIELVIVSRLLEYPDAALWQHQQEMFEAIAASKNLPKEDAHALGIFLRDLTTMDPLDAQAQYSELFDRGRATSLLLFEHVHGESRDRGQAMVDLLAQYEQHGLQLNSRELPDHLPLYLEYLAQLPQSEAVEGLKDIAPILALLSARLQQRESRYAVLFDLLLKLANTAIDSDKVAEKIADEARDDTPQALDAVWEEEQVKFFADKGCGDSAITAHQRRFAGAVAPQYLNITTGGQH [P0AF26]”, for which the “total protein half-life in vivo” value runs as follows: under setting [1], 3.83 ± 0.37 h; under setting [8], 0.814 h; under setting [9], 2.04 ± 0.028 h.

On to “MFEINPVNNRIQDLTERSDVLRGYLDYDAKKERLEEVNAELEQPDVWNEPERAQALGKERSSLEAVVDTLDQMKQGLEDVSGLLELAVEADDEETFNEAVAELDALEEKLAQLEFRRMFSGEYDSADCYLDIQAGSGGTEAQDWASMLERMYLRWAESRGFKTEIIEESEGEVAGIKSVTIKISGDYAYGWLRTETGVHRLVRKSPFDSGGRRHTSFSSAFVYPEVDDDIDIEINPADLRIDVYRTSGAGGQHVNRTESAVRITHIPTGIVTQCQNDRSQHKNKDQAMKQMKAKLYELEMQKKNAEKQAMEDNKSDIGWGSQIRSYVLDDSRIKDLRTGVETRNTQAVLDGSLDQFIEASLKAGL”, for which the “total protein half-life in vivo” value is 5.162 ± 0.05 h under setting [1]; 4.669 ± 0.007 h under setting [2]; 4.335 ± 0.033 h under setting [8]; 5.14 ± 0.28 h under setting [9]; 4.282 ± 0.0079 h under setting [3]; 2.79 ± 0.044 h under setting [10]. The “total protein half-life in vivo” value was found to be 4.99 ± 0.27 h under setting [4]; 8.37 ± 0.37 h under setting [11]; 4.37 ± 0.28 h under setting [5]; 6.87 ± 0.013 h under setting [12]; 4.6 ± 0.33 h under setting [6]; 8.54 ± 0.3 h under setting [7].

For the sequence “MNYHQYYPVDIVNGPGTRCTLFVSGCVHECPGCYNKSTWRVNSGQPFTKAMEDQIINDLNDTRIKRQGISLSGGDPLHPQNVPDILKLVQRIRAECPGKDIWVWTGYKLDELNAAQMQVVDLINVLVDGKFVQDLKDPSLIWRGSSNQVVHHLR [P0A9N8]”, the “total protein half-life in vivo” value by setting is: under setting [2], 1.08 h; under setting [11], 2.03 h.

In the case of “MRHPLVMGNWKLNGSRHMVHELVSNLRKELAGVAGCAVAIAPPEMYIDMAKREAEGSHIMLGAQNVDLNLSGAFTGETSAAMLKDIGAQYIIIGHSERRTYHKESDELIAKKFAVLKEQGLTPVLCIGETEAENEAGKTEEVCARQIDAVLKTQGAAAFEGAVIAYEPVWAIGTGKSATPAQAQAVHKFIRDHIAKVDANIAEQVIIQYGGSVNASNAAELFAQPDIDGALVGGASLKADAFAVIVKAAEAAKQA [P0A858]”, the “total protein half-life in vivo” value is 5.91 ± 0.91 h under setting [1]; 5.22 ± 0.98 h under setting [2]; 4.718 ± 0.03 h under setting [8]; 5.61 ± 0.81 h under setting [9]; 4.59 ± 0.26 h under setting [3]; 3.057 ± 0.024 h under setting [10]. For the same sequence, the “total protein half-life in vivo” value is, setting by setting: under setting [4], 5.92 ± 0.066 h; under setting [11], 10.6 ± 0.24 h; under setting [5], 4.75 ± 0.24 h; under setting [12], 8.33 ± 0.46 h; under setting [6], 5.79 ± 0.17 h; under setting [7], 13.1 ± 0.81 h.
